# Columns and labels:
# [1] = Plasma exposure in the ob/ob mouse efficacy study; assay type: in vivo, ob/ob mice; details: His6-tagged FGF21 0.3 mg/kg, SABA1-FGF21v1 1 mg/kg, without HSA; for Plasma Concentration: 3 hours post dose; for Plasma Concentration (ng/ml): […] hours post dose
# Method: (§1) Thus, monitoring plasma glucose levels in diabetic ob/ob mice represents one way that the functional activity of the FGF21-SABA fusion proteins can be assessed. Beginning at 8 weeks of age, diabetic ob/ob mice received daily subcutaneous doses for 7 days (n=8 per group). All protocols were approved by the BMS ACUC committee. Fed glucose levels were examined both 24 hr and 3 hr post-dose on day 7 beginning at 8:00 AM. His-tagged FGF21 and SABA1-FGF21v1 were formulated in PBS and dosed at 0.3 mg/kg, and 1.0 mg/kg. respectively.
# (§2) To evaluate the efficacy of SABA1-FGF21v1 bound to human albumin, the fusion protein (1 mg/kg) was incubated with a molar excess of human serum albumin (6 mg/kg) and the mixture was injected in an additional group (q.d. s.c. for 7 days). Human serum albumin (6 mg/kg) was used as an additional control group.
# The exposure of SABA1-FGF21v1 is greater in the presence of human serum albumin than in its absence.
# (§3) Various in vivo studies were conducted in mice and monkeys to characterize the pharmacokinetics of His-tagged FGF21 and SABA1-FGF21v1. An ELISA-based ligand binding assay was used to measure the His-tagged FGF21 and SABA1-FGF21v1 in all mouse and monkey plasma samples.
# [2] = Pharmacokinetics of His-tagged FGF21 and SABA1-FGF21v1 in mice; assay type: in vivo, CD-1 mice; ob/ob mice; details: for steady-state volume of distribution (Vss) / terminal half-life (T1/2) / total body plasma clearance (CLTp): CD-1 mice, intravenous, His-tagged FGF21 1 mg/kg, SABA1-FGF21v1 1.6 mg/kg
# Method: as §3
# (§4) Following subcutaneous administration, His-tagged FGF21 was well absorbed.
# (§5) Following subcutaneous administration, SABA1-FGF21v1 was well absorbed.
# SABA1-FGF21v1 was also administered to ob/ob mice at 1 mg/kg subcutaneously after pre-mix with human serum albumin (6 mg/kg).
# diabetic ob/ob mice = experiment: Plasma glucose lowering in diabetic ob/ob mice, 7 days daily s.c.; assay type: in vivo, mouse; details: day 7; for lowering of plasma glucose compared to the PBS vehicle control: SABA1-FGF21v1 1.0 mg/kg, His-tagged FGF21 0.3 mg/kg s.c. daily; for magnitude of glucose lowering: […] hours post dose
# Method: as §1, §2
# [3] = test system: HEK cells stably expressing human β-klotho; experiment: HEK β-Klotho pERK 1/2 assay; assay type: cell-based; details: for Efficacy (%): % of His6-tagged FGF21 maximal activity; for activity in HEK β-klotho stable cells (specificity experiment): same dilutions as in parental HEK cells
# Method: FGF21 induces ERK phosphorylation in the presence of β-klotho. Accordingly, the present HEK-β-klotho assay system was constructed to examine the functional activity of the FGF21-SABA fusions in vitro. Specifically, in vitro activity, potency (EC50) and efficacy (as a percentage of maximal activity observed from an FGF21 molecule that is not fused to a SABA), were determined for the SABA1-FGF21v1 (SEQ ID NO: 132) fusion protein, as measured in the HEK β-Klotho expressing stable cell pERK 1/2 assay using the non-fused His-tagged FGF21 (“FGFv1”; SEQ ID NO: 125) as a comparator.
# A HEK cell line stably expressing human β-klotho was constructed. The human β-klotho construct encoded the full length protein under the control of a CMV promoter with a C-terminal FLAG tag. HEK 293 cells were transfected with the linearized cDNA using Lipofectamine 2000 (Invitrogen catalog #11668027) following the manufactures protocol using standard techniques. Positive clones were isolated after 14 days of selection in 600 ug/ml (Invitrogen catalog #10131) of geneticin in Dulbecco's Modified Eagle Medium with high glucose containing L-Glutamine, Hepes (Invitrogen catalog #12430054) and 10% FBS (HyClone catalog # SH30071). Positive stable clones were further characterized by Western Blot analysis and p-ERK activation by AlphaScreen (Perkin Elmer catalog # TGRES50K) analysis.
# HEK cells stably expressing human β-klotho were plated at 20,000 cells/well in 96 well tissue culture plates in DMEM high glucose media (Gibco) containing 10% (v/v) FBS (Hyclone) and 600 μg/ml G418 (Gibco). The following day, the media was removed and replaced with DMEM high glucose media without serum and the cells were incubated overnight. The morning of the third day the serum free media was removed and the cells were incubated for a total of seven minutes with dilutions of the proteins made in PBS containing 3% (w/v) fatty acid free human serum albumin. Dilutions were tested in triplicate, one well on each of three plates. At the end of the seven minute incubation, the protein dilutions were removed and 100 μl of 1x AlphaScreen lysis buffer (Perkin-Elmer) was added per well and allowed to incubate with shaking for approximately 10-15 minutes. The plates containing the cellular lysates were frozen at −80° C. for at least 30 minutes or until ready to assay. Four μl from each well of thawed cell lysate was analyzed for pERK 1/2 using the Surefire AlphaScreen pERK 1/2 kit (Perkin Elmer) using 384 well white Proxiplates (Perkin Elmer) following the manufacturer's directions. Plates were incubated at room temperature for two hours in the dark and then read on an Envision 2103 Multiplate reader (Perkin Elmer). Data were analyzed using Graph Pad Prism software using a non-linear regression analysis.
# [4] = test system: parental HEK cells, which do not express β-klotho; experiment: pERK 1/2 specificity assay in parental HEK cells; assay type: cell-based, human
# Excerpt: FGF1 was used as a positive control in those experiments.
# [5] = Pharmacokinetics of His-tagged FGF21 and SABA-FGF21 fusions in monkeys; assay type: in vivo, cynomolgus monkeys; details: for CL (total body plasma clearance, CLTp) / T½ (terminal half-life) / Vdss (steady-state volume of distribution, Vss) / absolute subcutaneous bioavailability / apparent subcutaneous terminal half-life (T1/2): monkeys; for CL (total body plasma clearance, CLTp) / T½ (terminal half-life) / Vdss (steady-state volume of distribution, Vss): intravenous, His-tagged FGF21 0.5 mg/kg, SABA1-FGF21v1 0.08 mg/kg
# Method: as §3, §4, §5
# [6] = cyno, SC, 0.08 mg/kg, N = 3, mean ± SD
molecule,measurement,setting,value
"SABA1-FGF21v1: SABA1-FGF21 fusion, SEQ ID NO: 132; 293 aa; DNA SEQ ID NO: 184 (protein) MGVSDVPRDLEVVAATPTSLLISWHSYYEQNSYYRITYGETGGNSPVQEFTVPYSQTTATISGLKPGVDYTITVYAVYGSKYYYPISINYRTEIEKPSQGSGSGSGSGSGSGSPIPDSSPLLQFGGQVRQRYLYTDDAQQTEAHLEIREDGTVGGAADQSPESLLQLKALKPGVIQILGVKTSRFLCQRPDGALYGSLHFDPEACSFRELLLEDGYNVYQSEAHGLPLHLPGNKSPHRDPAPRGPARFLPLPGLPPALPEPPGILAPQPPDVGSSDPLSMVGPSQGRSPSYAS",Plasma Concentration,[1],1370 ng/mL
same,Plasma Concentration (ng/ml),[1],<LLOQ
same,steady-state volume of distribution (Vss),[2],0.12 L/kg
same,terminal half-life (T1/2),[2],1.9 h
same,total body plasma clearance (CLTp),[2],2.9 mL/min/kg
same,apparent subcutaneous terminal half-life (T1/2),"[2]; mice, subcutaneous",1.9 h
same,apparent subcutaneous terminal half-life (T1/2),"[2]; ob/ob mice, 1 mg/kg subcutaneously after pre-mix with human serum albumin (6 mg/kg)",9 h
same,lowering of plasma glucose compared to the HSA control,"diabetic ob/ob mice; 3 hours post dose, 1 mg/kg with human serum albumin 6 mg/kg, q.d. s.c.",46%
same,lowering of plasma glucose compared to the PBS vehicle control,diabetic ob/ob mice; 3 hours post dose,29%
same,magnitude of glucose lowering,"diabetic ob/ob mice; 1.0 mg/kg s.c. daily, without HSA",7%
same,magnitude of glucose lowering,diabetic ob/ob mice; 1 mg/kg with HSA 6 mg/kg,41%
same,right shift of potency (EC50) relative to the His-tagged FGF21,[3],approximately 15 fold
same,Efficacy (%),"[3]; mean ± std. dev., N ≧4",62%
same,Efficacy (%),"[3]; mean ± std. dev., N ≧4, listed as SABAl-FGF21v1",62 ± 9%
same,activity in HEK β-klotho stable cells (specificity experiment),[3],showed activity
same,stimulation of pERK 1/2 levels in parental HEK cells,[4],neither His-tagged FGF21 nor SABA1-FGF21v1 stimulated pERK 1/2 levels
same,AUCtot,"[5]; cyno, IV, 0.08 mg/kg, N = 2",3.621 µM·h
same,CLTp,"[5]; cyno, IV, 0.08 mg/kg, N = 2",0.0118 mL/min/kg
same,T½,"[5]; cyno, IV, 0.08 mg/kg, N = 2",97 h
same,Vss,"[5]; cyno, IV, 0.08 mg/kg, N = 2",0.076 L/kg
same,F (%),"[5]; cyno, SC, 0.08 mg/kg",68%
same,AUCtot,[5]; [6],2.454 ± 0.779 µM·h
same,Cmax,[5]; [6],22.4 ± 10.8 nM
same,Tmax,[5]; [6],13 ± 9 h
same,"CL (total body plasma clearance, CLTp)",[5],0.012 mL/min/kg
same,T½ (terminal half-life),[5],97 h
same,"Vdss (steady-state volume of distribution, Vss)",[5],0.08 L/kg
same,absolute subcutaneous bioavailability,[5],68%
same,apparent subcutaneous terminal half-life (T1/2),[5],67 h
"His-tagged FGF21: non-fused His-tagged FGF21 (“FGFv1”; SEQ ID NO: 125) used as a comparator (protein, His6 tag) MHHHHHHPIPDSSPLLQFGGQVRQRYLYTDDAQQTEAHLEIREDGTVGGAADQSPESLLQLKALKPGVIQILGVKTSRFLCQRPDGALYGSLHFDPEACSFRELLLEDGYNVYQSEAHGLPLHLPGNKSPHRDPAPRGPARFLPLPGLPPALPEPPGILAPQPPDVGSSDPLSMVGPSQGRSPSYAS",Plasma Concentration,[1],99 ng/mL
same,Plasma Concentration (ng/ml),[1],<LLOQ
same,steady-state volume of distribution (Vss),[2],0.27 L/kg
same,terminal half-life (T1/2),[2],0.5 h
same,total body plasma clearance (CLTp),[2],12 mL/min/kg
same,absolute subcutaneous bioavailability,"[2]; mice, subcutaneous",~100%
same,apparent subcutaneous terminal half-life (T1/2),"[2]; mice, subcutaneous",0.6 h
same,lowering of plasma glucose compared to the PBS vehicle control,diabetic ob/ob mice; 3 hours post dose,comparable
same,Efficacy (%),"[3]; mean ± std. dev., N ≧4",100%
same,EC50,"[3]; pERK 1/2, in PBS with 3% human serum albumin, mean ± std. dev., N ≧4",7 ± 4 nM
same,activity in HEK β-klotho stable cells (specificity experiment),[3],showed activity
same,stimulation of pERK 1/2 levels in parental HEK cells,[4],neither His-tagged FGF21 nor SABA1-FGF21v1 stimulated pERK 1/2 levels
same,"CL (total body plasma clearance, CLTp)",[5],6.4 mL/min/kg
same,T½ (terminal half-life),[5],1.9 h
same,"Vdss (steady-state volume of distribution, Vss)",[5],1 L/kg
same,absolute subcutaneous bioavailability,[5],65%
same,apparent subcutaneous terminal half-life (T1/2),[5],4.3 h

# Source: US9540424B2, “Serum albumin binding molecules” (BRISTOL-MYERS SQUIBB COMPANY, priority 2010, dated 2017)
